In patent publication US20240368663A1, “CELL-FREE BIOPRODUCTION OF B-CRYPTOXANTHIN AND ZEAXANTHIN” (DEBUT BIOTECHNOLOGY, INC., priority 2021, published 2024):

Columns and labels:
[1] = cited from earlier work
[2] = Cell-free conversion of β-carotene to zeaxanthin with cell lysate expressing CrtZ; format: biochemical; conditions: 1.67 mM β-carotene, 24 hours
Experimental: Enzyme Expression and Purification: All genes were synthesized and cloned into expression plasmids and then transformed into E. coli cells for expression. Cells were grown in Terrific Broth media supplemented with 50 μg/mL kanamycin sulfate at 37° C. and 200 rpm until A595=0.6. Cells were cooled to 18° C., protein expression was induced, and the cultures were grown for an additional 18 h. Cell pellets were collected by centrifugation, and then resuspended in a 1.8 mL lysis buffer (50 mM Tris pH 8.5, 150 mM NaCl, 10% Glycerol (v/v)) per gram of cell paste. Cell lysates were prepared by sonication and clarified by centrifugation at 11,000×g for 10 minutes, at 4° C. After clarification, lysate was kept on ice or flash frozen and stored at −80° C. for later use.
Analytical methods: For sampling, 5× volume of THE was mixed with the reaction fluid, followed by high-speed centrifugation. Samples were run on an HPLC system to examine the amount of β-cryptoxanthin and zeaxanthin present in the reaction mixture. The HPLC method was as follows: An Agilent 1200 HPLC was fitted with an Acclaim C-30 Column 250 mm×4.6 mm, 5 μm, equipped with an Acclaim C-30 guard column. The column was heated to 20° C. with the sample block being maintained at 20° C. For each sample, 10 μL was injected and the product was eluted at a flow rate of 1.0 ml/min using Methanol (solvent A) and tert-butyl-methyl ether (solvent B) with the following gradient: 80% A to 65% A for 10 min, 65% A to 10% A for 10 min, 10% A for 5 min, 10% A to 80% for 0.5 min, and 80% A for 5.5 min for column equilibration. The run time was a total of 31 minutes with zeaxanthin eluting at 7.2 mins, β-cryptoxanthin eluting at 12.2 minutes, and β-carotene eluting at 16.9 min. A diode array detector (DAD) was used for the detection of the molecule of interest at 450 nm.
As described herein, β-carotene is hydroxylated by the CrtZ enzyme (CrtZ, EC1.14.15.24) to form β-cryptoxanthin, and then β-cryptoxanthin is hydroxylated by CrtZ to form Zeaxanthin. […]

[3] = 2% polysorbate 20, 6% THE, 0.2 mM FeSO4, 16° C.

CC1=C(/C=C/C(C)=C/C=C/C(C)=C/C=C/C=C(C)/C=C/C=C(C)/C=C/C2=C(C)CCCC2(C)C)C(C)(C)CCC1 [β-carotene]
solubility in water [1]: insoluble in water

CC1=C(/C=C/C(C)=C/C=C/C(C)=C/C=C/C=C(C)/C=C/C=C(C)/C=C/C2=C(C)C[C@@H](O)CC2(C)C)C(C)(C)CCC1 [β-cryptoxanthin]
solubility in water [1]: insoluble in water

B1: P. ananatis CrtZ: β-carotene hydroxylase enzyme (CrtZ, EC1.14.15.24) from P. ananatis, used as E. coli cell lysate; likely Pantoea WP_013027996.1 (protein, listed as Pantoea sp.)
chain: MLWIWNALIVFVTVIGMEVVAALAHKYIMHGWGWGWHLSHHEPRKGAFEVNDLYAVVFAALSILLIYLGSTGMWPLQWIGAGMTAYGLLYFMVHDGLVHQRWPFRYIPRKGYLKRLYMAHRMHHAVRGKEGCVSFGFLYAPPLSKLQATLRERHGARAGAARDAQGGEDEPASGK
β-carotene substrate converted into zeaxanthin ([2]; 2% polysorbate 20 (v/v), 6% THE (v/v), 0.2 mM FeSO4, concentrated cell lysate, 16° C.): 84 % (molar ratio) | zeaxanthin concentration produced [2, 3]: ~1.4 mM | zeaxanthin titer produced [2, 3]: 796 mg/L
